The target in this test is T1, human c-Met/Fc fusion protein (R&D Systems) (human, UniProt P08581 25-932).
T1 construct: Purchased reagent coated on ELISA plates; also called human c-Met/Fc protein; not shown: Fc part of the purchased fusion
As to the kind of experiment: ELISA, hybridoma culture on plate-coated human c-Met/Fc fusion protein (2 ug/mL). The protocol: Human c-Met/Fc fusion protein was seeded in an amount of 50 μL (2 μg/mL)/well to microtiter plates and allowed to adhere to the surface of each well. The antibody that remained unbound was removed by washing.
The hybridoma cell culture obtained in Reference Example 1.1.2 was added in an amount of 50 μL to each well of the plates and incubated for 1 hour. The cells remaining unreacted were washed out with a sufficient amount of Tris-buffered saline and Tween 20 (TBST). Goat anti-mouse IgG-horseradish peroxidase (HRP) was added to the plates and incubated for 1 hour at room temperature. The plates were washed with a sufficient amount of TBST, followed by reacting the peroxidase with a substrate (OPD). Absorbance at 450 nm was measured on an ELISA reader.
On the technique in general: An ELISA detects its analyte on a solid surface through an enzyme-linked reagent.

T1 sequence (P08581 25-932): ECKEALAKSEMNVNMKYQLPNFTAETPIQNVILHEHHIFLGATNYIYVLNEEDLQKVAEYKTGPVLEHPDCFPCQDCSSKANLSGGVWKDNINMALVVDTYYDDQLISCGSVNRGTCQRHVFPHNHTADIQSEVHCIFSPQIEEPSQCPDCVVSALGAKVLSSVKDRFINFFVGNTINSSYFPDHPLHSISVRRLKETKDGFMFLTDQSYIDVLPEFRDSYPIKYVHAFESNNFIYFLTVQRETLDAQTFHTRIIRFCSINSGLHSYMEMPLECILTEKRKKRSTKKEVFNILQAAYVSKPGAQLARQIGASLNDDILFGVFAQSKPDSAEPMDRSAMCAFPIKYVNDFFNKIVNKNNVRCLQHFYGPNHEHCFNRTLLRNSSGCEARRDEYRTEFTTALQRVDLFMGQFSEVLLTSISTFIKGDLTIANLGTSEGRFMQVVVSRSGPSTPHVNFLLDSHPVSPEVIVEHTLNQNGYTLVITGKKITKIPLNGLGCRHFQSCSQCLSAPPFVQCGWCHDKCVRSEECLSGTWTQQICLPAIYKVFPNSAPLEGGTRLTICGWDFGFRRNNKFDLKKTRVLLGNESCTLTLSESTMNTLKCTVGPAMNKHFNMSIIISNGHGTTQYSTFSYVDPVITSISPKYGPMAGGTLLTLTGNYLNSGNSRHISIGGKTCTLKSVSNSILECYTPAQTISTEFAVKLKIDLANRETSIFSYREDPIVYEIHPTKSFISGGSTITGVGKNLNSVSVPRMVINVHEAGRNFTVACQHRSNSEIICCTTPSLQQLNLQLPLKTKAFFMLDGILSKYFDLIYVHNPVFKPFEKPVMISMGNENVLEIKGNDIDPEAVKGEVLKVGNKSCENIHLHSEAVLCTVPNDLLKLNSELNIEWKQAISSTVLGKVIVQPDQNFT

B1: AbF46, a mouse antibody to c-Met (antibody, V domains shown)
VH: EVKLVESGGGLVQPGGSLRLSCATSGFTFTDYYMSWVRQPPGKALEWLGFIRNKANGYTTEYSASVKGRFTISRDNSQSILYLQMDTLRAEDSATYYCARDNWFAYWGQGTLVTVSA
VL: DILMTQSPSSLTVSAGEKVTMSCKSSQSLLASGNQNNYLAWHQQKPGRSPKMLIIWASTRVSGVPDRFIGSGSGTDFTLTINSVQAEDLAVYYCQQSYSAPLTFGAGTKLELK
notes: Mouse monoclonal antibody from the single hybridoma clone chosen by ELISA; In the screening assay it was present as hybridoma culture supernatant; also called monoclonal antibody of hybridoma KCLRF-BP-00220
Turning to B1, the binding result is “binds”.

These data come from patent US20160144027A1 (SAMSUNG ELECTRONICS, published 2016).
